{"source": "paper PMC8924000", "about": "(2022)", "binders": {"B1": {"name": "recombinant GSDME with a C-terminal 6×His tag (natural protein)", "chain": "MFAKATRNFLREVDADGDLIAVSNLNDSDKLQLLSLVTKKKRFWCWQRPKYQFLSLTLGDVLIEDQFPSPVVVESDFVKYEGKFANHVSGTLETALGKVKLNLGGSSRVESQSSFGTLRKQEVDLQQLIRDSAERTINLRNPVLQQVLEGRNEVLCVLTQKITTMQKCVISEHMQVEEKCGGIVGIQTKTVQVSATEDGNVTKDSNVVLEIPAATTIAYGVIELYVKLDGQFEFCLLRGKQGGFENKKRIDSVYLDPLVFREFAFIDMPDAAHGISSQDGPLSVLKQATLLLERNFHPFAELPEPQQTALSDIFQAVLFDDELLMVLEPVCDDLVSGLSPTVAVLGELKPRQQQDLVAFLQLVGCSLQGGCPGPEDAGSKQLFMTAYFLVSALAEMPDSAAALLGTCCKLQIIPTLCHLLRALSDDGVSDLEDPTLTPLKDTERFGIVQRLFASADISLERLKSSVKAVILKDSKVFPLLLCITLNGLCALGREHS"}}, "target": "recombinant YBX1 with a C-terminal 6×His tag (UniProt P67809 1-324)", "sequence (P67809 whole entry)": "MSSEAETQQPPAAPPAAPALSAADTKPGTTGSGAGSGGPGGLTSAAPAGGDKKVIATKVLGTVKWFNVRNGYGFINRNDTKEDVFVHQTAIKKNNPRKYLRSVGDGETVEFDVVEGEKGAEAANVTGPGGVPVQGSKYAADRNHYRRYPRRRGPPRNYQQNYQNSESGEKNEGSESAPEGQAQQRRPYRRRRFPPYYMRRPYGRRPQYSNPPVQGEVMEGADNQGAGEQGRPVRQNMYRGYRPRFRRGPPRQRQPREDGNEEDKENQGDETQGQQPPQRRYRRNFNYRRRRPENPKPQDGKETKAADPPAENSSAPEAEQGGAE", "experiment": "BLI"}
{"binder": "B1", "values": [{"measurement": "Kd", "value": 0.0248, "unit": "nM"}]}
